B1: HDV Ribozyme (parent)
chain: GGCCGGCAUGGUCCCAGCCUCCUCGCUGGCGCCGGCUGGGCAACAUUCCGAGGGGACCGUCCCCUCGGUAAUGGCGAAUGGGACCCA

The variants in this series derive from B1. The series can be described thus: self-cleavage, relative activity (ratio to wild type); higher = more cleavage; co-transcriptional.
For C32G C63G, the self-cleavage was 0.0831.
Consider U12C U60G, for which the self-cleavage was found to be 0.399.
On to C4U A70C, for which the self-cleavage is 0.482.
Regarding G39A G80C, the self-cleavage was 0.145.
Consider G5U G53A, for which the self-cleavage is 0.332.
As to G39C C61G, the self-cleavage worked out at 0.196.
Regarding C33U C58A, the self-cleavage turned out to be 1.06.
Regarding C44A A56U, the self-cleavage was determined as 0.614.
On to G10C A77G, for which the self-cleavage was 0.458.
As to G2U U79C, the self-cleavage came out at 0.0434.
To C26A G80U belongs 0.398.
Turning to U37G C64U, the self-cleavage worked out at 0.
Consider C14U C44A, for which the self-cleavage stood at 1.01.
Take U23A U69G: the self-cleavage turned out to be 0.911.
As for U12C G40C, the self-cleavage is 0.0405.
For the variant C49U G73A, the self-cleavage was 0.716.
For the variant U69C A83C, the self-cleavage turned out to be 0.57.
For G5U G81U, the self-cleavage worked out at 0.166.
Regarding G6U G40A, the self-cleavage was 0.587.
With A43C U65G, the self-cleavage was 0.453.
For the variant U9G G17C, the self-cleavage is 0.166.
On to C18G U72A, for which the self-cleavage is 0.
To G35C A45C belongs 0; to C19G C30A, 0.0225.
In the case of C3A G73C, the self-cleavage was 0.0755.
The same measure for A16C G50U: 0.692; for G11A G81U: 0.137.
On to G6A G10A, for which the self-cleavage was 0.372.
Consider G25A C32U, for which the self-cleavage is 0.169.
The same measure for G80C A83C: 0.128; for G50C U60A: 1.03.
C48U C85U: the self-cleavage stood at 1.14.
As for G35U G68U, the self-cleavage was 0.309.
For U46G A77C, the self-cleavage came to 0.0875.
For G28C C49G, the self-cleavage is 0.119.
With U23C G34A, the self-cleavage came out at 0.0898.
With C32A A71U, the self-cleavage came out at 0.222.
As for C22U G67C, the self-cleavage was 0.535.
A8U C15U: the self-cleavage turned out to be 0.935.
For the variant C21G A43G, the self-cleavage came to 0.128.
In the case of C21G A43C, the self-cleavage amounted to 0.
As for U27G U69C, the self-cleavage came to 0.969.
Regarding U20C G82C, the self-cleavage was 0.0639.
To C14A C48G belongs 0.969.
The same measure for C33U G53A: 0.95; for U47G C84A: 0.965.
Take G40C C63U: the self-cleavage is 0.409.
On to A77U C86U, for which the self-cleavage stood at 0.729.
G68U U69C: the self-cleavage turned out to be 0.935.
Regarding C49G C62G, the self-cleavage turned out to be 0.133.
Regarding A43G U60C, the self-cleavage stood at 0.415.
The same measure for G1C U20A: 0; for G1C G53A: 0.193.
In the case of G52C C85U, the self-cleavage was found to be 1.09.
On to C21G A56C, for which the self-cleavage stood at 0.0386.
For G52C G67C, the self-cleavage amounted to 0.446.
Regarding A56C C85A, the self-cleavage came to 0.806.
As for U9A G40C, the self-cleavage is 0.325.
For G38U G52C, the self-cleavage amounted to 0.169.
Turning to G54A U60C, the self-cleavage was 1.06.
As to G6A A77C, the self-cleavage came out at 0.178.
To C32A C61A belongs 0.162; to G31C G55C, 0.327.
Turning to C57A A77U, the self-cleavage was 0.486.
As for U37A C44A, the self-cleavage turned out to be 0.364.
Regarding C15G U20A, the self-cleavage was found to be 0.128.
A45C C63G: the self-cleavage was 0.427.
For the variant G17A U79G, the self-cleavage was 0.388.
For the variant A56G G74U, the self-cleavage was determined as 0.564.
Take G39U G82C: the self-cleavage came out at 0.168.
With U37C C62U, the self-cleavage stood at 1.26.
In the case of U60C C84A, the self-cleavage came out at 0.698.
Take U23C G80A: the self-cleavage amounted to 0.394.
Turning to G29C C36A, the self-cleavage came out at 0.0297.
The same measure for U20G U47G: 0.185; for G17C U65A: 0.353; for U23C G74U: 0.554.
In the case of C26U U46G, the self-cleavage was 0.787.
To C24A G40U belongs 0.41.
To U20G C21U belongs 0.26; to A16G U46A, 0.646.
As to G2A C7A, the self-cleavage was 0.
For the variant G5A C22A, the self-cleavage was 0.0426.
On to G17U U72G, for which the self-cleavage turned out to be 0.
To C14A A77C belongs 0.115; to U65G G67C, 0.156; to U23A A42C, 0.253.
The same measure for U23A U27C: 0.575; for C30U A56C: 0.772.
In the case of A8C A43U, the self-cleavage came to 0.289.
As to G28U A87G, the self-cleavage came out at 0.0817.
With G38A C75A, the self-cleavage worked out at 0.115.
With A51U A70G, the self-cleavage came to 0.972.
Take C22U C66U: the self-cleavage came to 0.604.
The same measure for U27A A70C: 0.782; for C75A A87C: 0.202; for C7U G53A: 0.964.
Turning to U12G G38U, the self-cleavage was 0.0755.
A70G A77G: the self-cleavage turned out to be 0.831.
G50A C61U: the self-cleavage is 0.649.
For the variant A42G A87G, the self-cleavage was determined as 0.602.
Regarding G29C U46A, the self-cleavage is 0.178.
Take C61A U69G: the self-cleavage was 1.03.
Turning to G6U G28A, the self-cleavage stood at 0.
To G28A G38C belongs 0.0978.
Turning to G39A G59U, the self-cleavage worked out at 0.598.
Regarding A45G G67U, the self-cleavage turned out to be 0.933.
U23C G35C: the self-cleavage was found to be 0.115.
On to G11A U65A, for which the self-cleavage is 0.396.
For the variant G40U G74U, the self-cleavage is 0.468.
Consider C49U A83U, for which the self-cleavage was 0.391.
Turning to C21G U46A, the self-cleavage was found to be 0.147.
Turning to C22G G39A, the self-cleavage was 0.0817.
With G40A G55C, the self-cleavage was found to be 1.01.
The same measure for G11C C26G: 0.95.
As to C19A C84U, the self-cleavage stood at 0.0804.
With G25C A51C, the self-cleavage was 0.128.
On to C14A G25U, for which the self-cleavage amounted to 0.0652.
In the case of A42G A45C, the self-cleavage was 0.399.
Take A43C C64G: the self-cleavage turned out to be 0.415.
In the case of G5A A51G, the self-cleavage stood at 0.203.
Regarding C18G A71G, the self-cleavage is 0.
Regarding G6U C63U, the self-cleavage was determined as 0.763.
Turning to C48G G52A, the self-cleavage stood at 0.86.
As for C24U U47C, the self-cleavage is 0.739.
To C48A G74U belongs 0.38; to C49A G73A, 0.314; to C44G C48G, 0.575.
On to C48G A87C, for which the self-cleavage is 1.08.
Take A56U A83G: the self-cleavage came out at 0.876.
With G52U A83C, the self-cleavage came out at 0.259.
With C49A A71C, the self-cleavage was 0.643.
On to C49A A87G, for which the self-cleavage worked out at 0.839.
Turning to G50U A87C, the self-cleavage is 0.935.
On to G28U A51C, for which the self-cleavage worked out at 0.222.
In the case of C3G G81U, the self-cleavage was determined as 0.185.
On to U37C U69C, for which the self-cleavage came out at 0.89.
To C18U C26A belongs 0.591; to C18U C26U, 0.848; to C30U C49U, 0.891.
With C44U A78G, the self-cleavage was 0.242.
In the case of U46A G80U, the self-cleavage is 0.176.
To G31A G53A belongs 0.487; to G35A A51G, 0.673; to U20C C41G, 0.172.
On to G11A U37C, for which the self-cleavage is 0.381.
As to G6C C49U, the self-cleavage amounted to 0.489.
Turning to C62A C63G, the self-cleavage turned out to be 0.7.
In the case of G17A U72C, the self-cleavage was 0.141.
To G1C G55U belongs 0.203; to C13A G28A, 0.0875; to G2C C22U, 0.0567.
For the variant G11C G28U, the self-cleavage was found to be 0.0268.
In the case of A42U U72G, the self-cleavage turned out to be 0.322.
On to C15U G29A, for which the self-cleavage was 0.154.
C48G A71U: the self-cleavage stood at 0.554.
For the variant A51C A71C, the self-cleavage came to 0.692.
Regarding G6A G38A, the self-cleavage amounted to 0.0554.
As to A70U A71G, the self-cleavage was determined as 1.09.
The same measure for C19A G53U: 0.157; for U37G C61A: 0.0875.
To C15A G52U belongs 0.844; to G1U G80C, 0.272; to G11A C32U, 0.133.
In the case of G67C A87U, the self-cleavage was 0.858.
Consider C19A U65A, for which the self-cleavage was determined as 0.273.
C32U G59C: the self-cleavage amounted to 0.734.

The values above are taken from the RNAGym collection of RNA variant scans (doi:10.7554/elife.80360).
